The series can be described thus: protein stability index of a GFP-peptide fusion (GPS, HEK-293T) (PSI 1-6); higher = more stable.
The mark [1] stands for this setting: treatment: DMSO, c terminus: a fixed tail appended.
Setting [2] is: treatment: MLN4924 1 uM, 8 h, c terminus: a fixed tail appended.

For 72 sequences, protein stability index results are on record in the supplement of paper PMC10567573.

± gives the standard deviation.
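Also: 24-mer peptide tiles fused after GFP, lentivirally expressed, FACS-sorted into six equal bins by GFP/DsRed ratio, decoded by Illumina sequencing, PSI is the read-weighted mean bin number.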

As to GSRISVSRSTSFRGGMGSGGLATG [KRT18], the protein stability index runs as follows: under setting [1], 3.65 ± 0.19; under setting [2], 4.04 ± 0.69.

In the case of EEKKAKVAPPAKQAQQKKAPAKKA [BRD3], the protein stability index by setting is: under setting [1], 5.45 ± 0.29; under setting [2], 5.49 ± 0.17.

With VEQPQPQFISRFLEGQSGVTIKHV [NEK8], the protein stability index is 3.27 ± 0.18 under setting [1] and 3.29 ± 0.17 under setting [2].

As to DGGEPQSVQVDGQARTQKLQGLIP [TNXB], under setting [2], the protein stability index was found to be 5.22 ± 0.99.

For the sequence KLTDKHETVVSYLPLSHIAAQMMD [ACSBG2], the protein stability index runs as follows: under setting [1], 2.66 ± 0.4; under setting [2], 2.98 ± 0.43.

As for RQGPKEPPRKSGSFHSSGEKQKQP [PBXIP1], the protein stability index reads like this: under setting [1], 4.86 ± 0.27; under setting [2], 5.17 ± 0.15.

Turning to RCLVRCLLRREPAERLTATGILLH [TRIB3], the protein stability index runs as follows: under setting [1], 2.38 ± 0.43; under setting [2], 2.44 ± 0.26.

Turning to VNDLAVGLRRLGLHRTEGELQKIV [SLC25A25], the protein stability index is, setting by setting: under setting [1], 3.03 ± 0.074; under setting [2], 3.02 ± 0.28.

For LQCLQALYVDSLFFLRGRLDQLLR [PRAME], the protein stability index is, setting by setting: under setting [1], 2.09 ± 0.057; under setting [2], 2.2 ± 0.61.

GGGGSRSISASSARFVSSGSGGGY [KRT15]: the protein stability index reads like this: under setting [1], 4.23 ± 0.29; under setting [2], 4.13 ± 0.3.

Take TPLHVAAANKAVKCAEVIIPLLSS [ANKRD44]: the protein stability index reads like this: under setting [1], 2.44 ± 0.26; under setting [2], 2.54 ± 0.22.

With LLKKKPPQQQHHKAKRNRTCRPPS [ANKRD17], the protein stability index was determined as 3.93 ± 0.22 under setting [1] and 4 ± 0.29 under setting [2].

On to SRELSLRPSRSGAQQLEEEGPMEE [EID1], for which the protein stability index reads like this: under setting [1], 5.58 ± 0.29; under setting [2], 5.64 ± 0.12.

In turn, LEQRSESVRRTRSKIGFGILLSKE [SMAD6] showed a protein stability index under setting [1] of 3.51 ± 0.27 and a protein stability index under setting [2] of 3.5 ± 0.3.

For the sequence QVSQVKGAARLALLQGAGLDVERW [FCHSD1], the protein stability index under setting [1] stood at 2.89 ± 0.32 and the protein stability index under setting [2] came out at 3.16 ± 0.49.

LRLEWETQQELRKIREKEEWIKLD [IQUB]: the protein stability index was determined as 3.12 ± 0.62 under setting [1] and 3.44 ± 0.63 under setting [2].

The sequence MAGAATGSRTPGRSELVEGCGWRC [TRIM14] returned a protein stability index under setting [1] of 3.46 ± 0.32 and a protein stability index under setting [2] of 3.61 ± 0.26.

REQMEQMKQRIAEENIMKSNIDKK [FAM50A] displayed a protein stability index under setting [1] of 5.08 ± 0.31 and a protein stability index under setting [2] of 5.24 ± 0.11.

As for AALPPVPSPPAAPSVADNLLASSD [SERTAD1], the protein stability index reads like this: under setting [1], 5.46 ± 0.14; under setting [2], 5.35 ± 0.3.

CGRKLAKDGEYCWRWTGFNFGFDL [GMCL1] showed a protein stability index under setting [1] of 2.72 ± 0.54 and a protein stability index under setting [2] of 2.71 ± 0.91.

For the sequence NTVLRFLDLKGNNLRAAGAEALGK [LRRC45], the protein stability index was found to be 3.31 ± 0.27 under setting [1] and 3.28 ± 0.25 under setting [2].

Turning to KVPAPKDVLAHQVPNAKKLRRKEQ [NOP53], the protein stability index was determined as 4.76 ± 0.26 under setting [1] and 4.99 ± 0.17 under setting [2].

MQFLIRSHECKPEGYEFCHNRKVL [PPEF2] showed a protein stability index under setting [1] of 2.28 ± 0.34 and a protein stability index under setting [2] of 2.55 ± 0.18.

Take RLEKAVAAAYTFLQRNPKHELTAK [P3H4]: the protein stability index by setting is: under setting [1], 2.32 ± 0.12; under setting [2], 2.49 ± 0.29.

As for MEPPGPVRGPLQDSSWYEPSAELV [ZNF232], the protein stability index amounted to 4.79 ± 0.3 under setting [1] and 4.67 ± 0.43 under setting [2].

Take SSSRPISPGLSYASHTVGFTPPTS [CCDC6]: the protein stability index was 3.54 ± 0.22 under setting [1] and 3.74 ± 0.15 under setting [2].

RVAHEPVAPPEDKESESEAKVDGE [CDS2] registered a protein stability index under setting [1] of 5.47 ± 0.21 and a protein stability index under setting [2] of 5.63 ± 0.27.

With PAMVRISKPKTFQAYLDDCHRRYS [YPEL3], the protein stability index under setting [1] is 2.96 ± 0.11 and the protein stability index under setting [2] turned out to be 2.92 ± 0.17.

In the case of VLISNHVTPFDHNIVNLLTTCSTP [AUP1], the protein stability index under setting [1] was determined as 2.59 ± 0.66 and the protein stability index under setting [2] worked out at 2.48 ± 0.35.

Consider ICSLICLLIYTVKIRRFNKAKPEP [TMEM192], for which the protein stability index reads like this: under setting [1], 2.24 ± 0.52; under setting [2], 2.44 ± 0.63.

As for DTFAAYTREQLYQAIFHAVDQYLA [MCOLN1], the protein stability index came to 2.66 ± 0.44 under setting [1] and 2.42 ± 0.44 under setting [2].

With FLLIVTLCVILYKKVHKGTVPKND [GLT8D2], the protein stability index by setting is: under setting [1], 2.59 ± 0.8; under setting [2], 2.3 ± 0.59.

PWLWSEQQVCQWLLWATNEFSLVN [ETS2]: the protein stability index runs as follows: under setting [1], 2.76 ± 0.47; under setting [2], 2.42 ± 0.46.

Consider LLCWSVWWALSTCGYFQVVNYTQG [SLC19A2], for which the protein stability index was 3.41 ± 0.59 under setting [1] and 3.61 ± 0.29 under setting [2].

As to GHSSSRDDYPSRGYSDRDGYGRDR [RBMX], the protein stability index runs as follows: under setting [1], 4.87 ± 0.18; under setting [2], 4.88 ± 0.16.

With LPDPNNYYHRRNEMTTTDDLDFKH [CPXM2], the protein stability index reads like this: under setting [1], 4.55 ± 0.23; under setting [2], 4.7 ± 0.45.

Take LDLDSIIDEVRTQYEEIALKSKAE [KRT71]: the protein stability index under setting [1] came out at 3.91 ± 0.3 and the protein stability index under setting [2] turned out to be 4.21 ± 0.57.

Consider FCIPEHISPKARCLIRSLLRREPS [TRIB1], for which the protein stability index reads like this: under setting [1], 2.34 ± 0.47; under setting [2], 2.03 ± 0.32.

MPHSVTLRGPSPWGFRLVGGRDFS [PDLIM4]: the protein stability index by setting is: under setting [1], 2.61 ± 0.37; under setting [2], 2.8 ± 0.23.

On to LSWELLDSHLGGNARGMGIRSPRP [CTBP1-DT], for which the protein stability index amounted to 3.18 ± 0.46 under setting [1] and 3.18 ± 0.3 under setting [2].

VMARTRLVVPNKGYSSLDQSPDEK [FAM219A]: the protein stability index runs as follows: under setting [1], 4.62 ± 0.34; under setting [2], 3.88 ± 0.42.

For ERDLQELSIQVEEERRAREWLLDA [ZMAT5], the protein stability index reads like this: under setting [1], 4.54 ± 0.092; under setting [2], 4.95 ± 0.32.

As to PSPGVLCGSARPKPYDPPGEKMVA [ATF4], the protein stability index reads like this: under setting [1], 4.37 ± 0.28; under setting [2], 4.6 ± 0.23.

With GLLETEPLQGTDEDAVASADFSSM [TPD52L1], the protein stability index reads like this: under setting [1], 5.34 ± 0.3; under setting [2], 5.29 ± 0.37.

Consider HFAEEERSKYDYLMILRRVVNEST [TENT5C], for which the protein stability index turned out to be 2.55 ± 0.26 under setting [1] and 2.86 ± 0.37 under setting [2].

For the sequence DEKAKPRDRQQAPGLGQESKAPGS [TLE6], the protein stability index by setting is: under setting [1], 5.49 ± 0.21; under setting [2], 5.49 ± 0.21.

PAFDALGQLTGGYKPNPQIYVKLI [OAS1]: the protein stability index is, setting by setting: under setting [1], 2.34 ± 0.14; under setting [2], 2.15 ± 0.26.

ETLLGDPKRRMRYFDPLRNEYFFD [KCNA3] had a protein stability index under setting [1] of 2.58 ± 0.37 and a protein stability index under setting [2] of 2.79 ± 0.29.

For the sequence LSVQQPTALALEPDAIRSRSNTLR [PCDHGC5], the protein stability index reads like this: under setting [1], 4.43 ± 0.17; under setting [2], 4.56 ± 0.19.

The sequence FSDSSMDHFQKFLPTVGGQLGTAG [MYOZ1] showed a protein stability index under setting [1] of 2.78 ± 0.31 and a protein stability index under setting [2] of 3.23 ± 0.34.

For the sequence QWILDKQDLLKERQKDLKFLSEEE [CCNC], the protein stability index under setting [1] came to 4.43 ± 0.26 and the protein stability index under setting [2] turned out to be 4.53 ± 0.097.

On to GLNHSLSYDVALHRTRLQDLRVLV [SCARA5], for which the protein stability index is 2.2 ± 0.34 under setting [1] and 2.13 ± 0.1 under setting [2].

On to IFNVAIPRFHMACPTFRVSIARLE [FBXO3], for which the protein stability index is, setting by setting: under setting [1], 2.19 ± 0.57; under setting [2], 2.2 ± 0.47.

Turning to LSRYLIEPCGPGKSKLTYMCRVDL [DLC1], the protein stability index came out at 2.99 ± 0.73 under setting [1] and 3.2 ± 1.3 under setting [2].

As for QEELNRKAEELDRRERELQHAALG [SCAMP3], the protein stability index was 5.39 ± 0.21 under setting [1] and 5.24 ± 0.55 under setting [2].

As to LGAEIRNGMAIIRPPGHHAQHSLM [HDAC6], the protein stability index is, setting by setting: under setting [1], 2.92 ± 0.096; under setting [2], 2.99 ± 0.26.

With LTLVLVASVLLQAVLYPRFMGTIS [CD207], the protein stability index came out at 2.99 ± 0.28 under setting [1] and 3.25 ± 0.45 under setting [2].

For IWFIVPISCVICNDIMAYMFGFFF [CDS2], the protein stability index is, setting by setting: under setting [1], 3.19 ± 0.25; under setting [2], 3.11 ± 0.61.

On to EQLREALHEALLEYEAGRAGPGGG [ESRRA], for which the protein stability index reads like this: under setting [1], 3.92 ± 0.27; under setting [2], 4.05 ± 0.39.

Consider SNYYVAHPPVTYSQPYPTWLPCN [TENT5C], for which the protein stability index came to 3.25 ± 0.19 (treatment: DMSO, c terminus: native) and 3.44 ± 0.68 (treatment: MLN4924 1 uM, 8 h, c terminus: native).

Turning to ALSPSATAKRINRTSLSSGATVRS [CDC14A], the protein stability index amounted to 4.1 ± 0.11 under setting [1] and 4.16 ± 0.11 under setting [2].

With CDPGLTAFEPEALGNLVEGMDFHR [CAMK2D], the protein stability index is, setting by setting: under setting [1], 4.33 ± 0.43; under setting [2], 4.21 ± 0.24.

Take VAWHPVRPIIASISSGVVSIWAQN [RBBP5]: the protein stability index under setting [1] was determined as 2.48 ± 0.48 and the protein stability index under setting [2] was 2.5 ± 0.39.

As to LGGYVKIDLATWNFQFLPQVNGHP [PTPN9], the protein stability index is, setting by setting: under setting [1], 2.92 ± 0.57; under setting [2], 2.74 ± 0.86.

For the sequence SIPVTELSASGPFESHDLLRKGFS [POMP], the protein stability index is, setting by setting: under setting [1], 3.5 ± 0.25; under setting [2], 3.39 ± 0.34.

For the sequence DEPQETAYRTQVSSCCLHICQGIR [PKD2L1], the protein stability index is, setting by setting: under setting [1], 2.8 ± 0.61; under setting [2], 3.1 ± 0.46.

With GKNPDVDTSFLPDRDREEEENRLR [FAM50A], the protein stability index turned out to be 5.26 ± 0.11 under setting [1] and 5.49 ± 0.38 under setting [2].

As for NCFEITLELSCDKFPPEEELQREW [CPN1], the protein stability index came out at 2.77 ± 0.24 under setting [1] and 3.1 ± 0.22 under setting [2].

As for RNGHLATVKLLVEEKADVLARGPL [RIPK4], the protein stability index is, setting by setting: under setting [1], 3.1 ± 0.4; under setting [2], 3.44 ± 0.19.

Turning to TSPECASPQFEGPLSPPPINYNGI [NEUROD6], the protein stability index by setting is: under setting [1], 4.07 ± 0.15; under setting [2], 3.91 ± 0.3.

Turning to VPPRRATISSWRNDRMSTRHDGYA [RBMY1A1], the protein stability index worked out at 3.37 ± 0.092 under setting [1] and 3.4 ± 0.36 under setting [2].

VLSLVKKHYRLQFYMFAWTHVTLL [CDS1]: the protein stability index under setting [1] worked out at 3.25 ± 0.56 and the protein stability index under setting [2] was found to be 2.8 ± 0.56.
